We go through two molecules from PMC6458054 (Nature, 2017).

In assay [1] the target is full-length (FL) His-ASCC3 (human, UniProt Q8N3C0 1-2202). As to the kind of experiment: pull-down.
Assay [2] addresses N-terminally deleted His-ASCC3 (human, UniProt Q8N3C0 401-2202). Put plainly: pull-down.

N-terminally deleted His-ASCC3, sequence (Q8N3C0 401-2202, stated change not applied): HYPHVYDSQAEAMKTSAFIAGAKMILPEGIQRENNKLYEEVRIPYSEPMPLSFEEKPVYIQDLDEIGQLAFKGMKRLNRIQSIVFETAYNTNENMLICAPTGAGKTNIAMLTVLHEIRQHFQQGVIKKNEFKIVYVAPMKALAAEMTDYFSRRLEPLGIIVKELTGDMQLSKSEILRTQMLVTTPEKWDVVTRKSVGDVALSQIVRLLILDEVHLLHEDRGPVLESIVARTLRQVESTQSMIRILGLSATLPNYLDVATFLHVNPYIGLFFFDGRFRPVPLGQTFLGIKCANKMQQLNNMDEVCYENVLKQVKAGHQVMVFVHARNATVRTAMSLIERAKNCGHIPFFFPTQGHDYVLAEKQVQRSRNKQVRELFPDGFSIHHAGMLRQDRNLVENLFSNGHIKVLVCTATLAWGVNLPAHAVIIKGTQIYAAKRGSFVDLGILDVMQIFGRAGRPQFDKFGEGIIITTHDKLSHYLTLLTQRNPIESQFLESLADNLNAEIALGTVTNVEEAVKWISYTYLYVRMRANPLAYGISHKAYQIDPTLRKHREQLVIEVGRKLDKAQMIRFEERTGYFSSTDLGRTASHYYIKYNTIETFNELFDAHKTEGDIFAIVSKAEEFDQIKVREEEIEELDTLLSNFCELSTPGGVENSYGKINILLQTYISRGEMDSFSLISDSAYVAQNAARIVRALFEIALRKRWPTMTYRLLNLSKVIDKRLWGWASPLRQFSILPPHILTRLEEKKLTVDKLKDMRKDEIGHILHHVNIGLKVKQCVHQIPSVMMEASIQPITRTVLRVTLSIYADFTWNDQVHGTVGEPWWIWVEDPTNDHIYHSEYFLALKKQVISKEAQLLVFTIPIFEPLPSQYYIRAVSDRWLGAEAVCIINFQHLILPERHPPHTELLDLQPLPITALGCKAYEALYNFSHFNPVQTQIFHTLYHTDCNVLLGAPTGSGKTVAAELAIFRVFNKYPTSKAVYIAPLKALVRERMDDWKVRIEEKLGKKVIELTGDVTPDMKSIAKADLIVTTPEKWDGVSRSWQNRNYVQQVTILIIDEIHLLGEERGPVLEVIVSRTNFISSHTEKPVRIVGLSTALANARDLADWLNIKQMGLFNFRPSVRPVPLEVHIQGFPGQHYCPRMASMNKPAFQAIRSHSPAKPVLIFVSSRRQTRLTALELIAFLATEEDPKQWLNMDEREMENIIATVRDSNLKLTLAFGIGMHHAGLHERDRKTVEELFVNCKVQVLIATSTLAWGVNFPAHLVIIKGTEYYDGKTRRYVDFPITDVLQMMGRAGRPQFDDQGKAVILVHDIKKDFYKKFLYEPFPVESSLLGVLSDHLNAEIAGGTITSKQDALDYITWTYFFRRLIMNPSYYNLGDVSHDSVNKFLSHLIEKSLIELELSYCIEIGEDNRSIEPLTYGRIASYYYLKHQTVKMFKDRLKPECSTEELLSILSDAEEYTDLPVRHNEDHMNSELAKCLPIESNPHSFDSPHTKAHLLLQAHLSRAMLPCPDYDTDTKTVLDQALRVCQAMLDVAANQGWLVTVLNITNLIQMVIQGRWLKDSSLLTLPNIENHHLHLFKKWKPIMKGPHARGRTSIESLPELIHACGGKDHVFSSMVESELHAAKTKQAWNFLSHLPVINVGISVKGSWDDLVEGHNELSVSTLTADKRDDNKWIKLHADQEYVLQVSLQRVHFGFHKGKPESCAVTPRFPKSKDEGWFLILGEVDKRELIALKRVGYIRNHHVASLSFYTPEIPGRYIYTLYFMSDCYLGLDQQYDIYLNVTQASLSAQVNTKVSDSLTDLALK
full-length (FL) His-ASCC3, sequence (Q8N3C0 whole entry): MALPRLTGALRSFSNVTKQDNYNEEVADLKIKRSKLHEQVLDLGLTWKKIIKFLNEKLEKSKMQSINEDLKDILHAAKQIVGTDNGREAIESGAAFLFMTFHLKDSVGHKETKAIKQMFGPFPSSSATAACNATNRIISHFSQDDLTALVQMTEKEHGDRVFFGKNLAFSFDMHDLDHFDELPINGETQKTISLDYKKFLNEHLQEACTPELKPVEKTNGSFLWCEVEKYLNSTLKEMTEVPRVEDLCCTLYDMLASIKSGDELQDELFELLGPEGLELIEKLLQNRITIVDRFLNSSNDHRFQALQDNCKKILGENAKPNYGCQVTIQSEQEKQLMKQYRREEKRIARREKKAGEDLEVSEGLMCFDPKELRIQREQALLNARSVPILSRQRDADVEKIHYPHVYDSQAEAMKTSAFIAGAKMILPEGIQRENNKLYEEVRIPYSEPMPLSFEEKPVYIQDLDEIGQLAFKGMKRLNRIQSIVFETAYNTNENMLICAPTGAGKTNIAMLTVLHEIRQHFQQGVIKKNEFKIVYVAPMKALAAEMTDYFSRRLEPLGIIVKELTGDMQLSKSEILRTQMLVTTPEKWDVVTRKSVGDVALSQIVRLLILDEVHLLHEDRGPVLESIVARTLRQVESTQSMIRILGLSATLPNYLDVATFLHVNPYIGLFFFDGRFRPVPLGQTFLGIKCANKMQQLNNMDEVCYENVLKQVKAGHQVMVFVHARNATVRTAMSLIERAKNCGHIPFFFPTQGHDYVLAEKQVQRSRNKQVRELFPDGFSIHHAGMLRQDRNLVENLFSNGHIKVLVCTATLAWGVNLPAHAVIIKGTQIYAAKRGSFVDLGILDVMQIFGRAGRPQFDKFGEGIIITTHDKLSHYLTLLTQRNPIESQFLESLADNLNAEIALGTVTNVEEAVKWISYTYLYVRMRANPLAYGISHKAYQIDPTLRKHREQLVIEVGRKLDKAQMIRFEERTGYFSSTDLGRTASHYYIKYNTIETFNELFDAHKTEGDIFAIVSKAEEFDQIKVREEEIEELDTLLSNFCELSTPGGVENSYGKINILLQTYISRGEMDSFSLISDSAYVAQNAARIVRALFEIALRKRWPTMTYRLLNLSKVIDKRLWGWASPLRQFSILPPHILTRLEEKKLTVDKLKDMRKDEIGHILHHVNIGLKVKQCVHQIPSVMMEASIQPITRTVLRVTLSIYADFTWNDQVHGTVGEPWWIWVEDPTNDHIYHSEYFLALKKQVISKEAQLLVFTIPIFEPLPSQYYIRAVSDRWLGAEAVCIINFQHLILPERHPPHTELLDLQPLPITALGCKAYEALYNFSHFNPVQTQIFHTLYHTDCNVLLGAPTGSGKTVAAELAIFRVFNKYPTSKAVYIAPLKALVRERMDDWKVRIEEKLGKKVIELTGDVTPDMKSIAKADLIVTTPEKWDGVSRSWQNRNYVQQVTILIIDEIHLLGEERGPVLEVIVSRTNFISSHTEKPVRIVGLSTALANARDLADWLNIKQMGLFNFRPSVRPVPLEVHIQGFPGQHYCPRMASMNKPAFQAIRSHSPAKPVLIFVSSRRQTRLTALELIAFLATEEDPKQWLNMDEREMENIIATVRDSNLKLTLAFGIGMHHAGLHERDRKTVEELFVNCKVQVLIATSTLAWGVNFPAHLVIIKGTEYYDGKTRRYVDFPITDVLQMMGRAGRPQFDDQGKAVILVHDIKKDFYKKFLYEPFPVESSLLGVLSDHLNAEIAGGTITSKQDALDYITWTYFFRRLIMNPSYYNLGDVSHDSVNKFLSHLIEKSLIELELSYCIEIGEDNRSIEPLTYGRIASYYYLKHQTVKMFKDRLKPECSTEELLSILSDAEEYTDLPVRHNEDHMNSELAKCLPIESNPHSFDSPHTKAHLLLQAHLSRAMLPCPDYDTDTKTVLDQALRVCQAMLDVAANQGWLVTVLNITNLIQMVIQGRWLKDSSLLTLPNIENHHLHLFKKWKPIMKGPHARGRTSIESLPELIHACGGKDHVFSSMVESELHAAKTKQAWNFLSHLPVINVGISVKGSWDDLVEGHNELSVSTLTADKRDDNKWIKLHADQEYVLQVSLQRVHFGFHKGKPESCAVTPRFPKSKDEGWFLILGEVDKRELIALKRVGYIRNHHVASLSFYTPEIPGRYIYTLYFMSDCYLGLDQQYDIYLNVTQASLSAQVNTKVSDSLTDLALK

B1: Flag-ASCC2 (natural protein)
chain: MPALPLDQLQITHKDPKTGKLRTSPALHPEQKADRYFVLYKPPPKDNIPALVEEYLERATFVANDLDWLLALPHDKFWCQVIFDETLQKCLDSYLRYVPRKFDEGVASAPEVVDMQKRLHRSVFLTFLRMSTHKESKDHFISPSAFGEILYNNFLFDIPKILDLCVLFGKGNSPLLQKMIGNIFTQQPSYYSDLDETLPTILQVFSNILQHCGLQGDGANTTPQKLEERGRLTPSDMPLLELKDIVLYLCDTCTTLWAFLDIFPLACQTFQKHDFCYRLASFYEAAIPEMESAIKKRRLEDSKLLGDLWQRLSHSRKKLMEIFHIILNQICLLPILESSCDNIQGFIEEFLQIFSSLLQEKRFLRDYDALFPVAEDISLLQQASSVLDETRTAYILQAVESAWEGVDRRKATDAKDPSVIEEPNGEPNGVTVTAEAVSQASSHPENSEEEECMGAAAAVGPAMCGVELDSLISQVKDLLPDLGEGFILACLEYYHYDPEQVINNILEERLAPTLSQLDRNLDREMKPDPTPLLTSRHNVFQNDEFDVFSRDSVDLSRVHKGKSTRKEENTRSLLNDKRAVAAQRQRYEQYSVVVEEVPLQPGESLPYHSVYYEDEYDDTYDGNQVGANDADSDDELISRRPFTIPQVLRTKVPREGQEEDDDDEEDDADEEAPKPDHFVQDPAVLREKAEARRMAFLAKKGYRHDSSTAVAGSPRGHGQSRETTQERRKKEANKATRANHNRRTMADRKRSKGMIPS
For the molecule B1, the binding result in assay [1] is listed as “binds”.

B2: Flag-ALKBH3 (enzyme)
chain: MEEKRRRARVQGAWAAPVKSQAIAQPATTAKSHLHQKPGQTWKNKEHHLSDREFVFKEPQQVVRRAPEPRVIDREGVYEISLSPTGVSRVCLYPGFVDVKEADWILEQLCQDVPWKQRTGIREDITYQQPRLTAWYGELPYTYSRITMEPNPHWHPVLRTLKNRIEENTGHTFNSLLCNLYRNEKDSVDWHSDDEPSLGRCPIIASLSFGATRTFEMRKKPPPEENGDYTYVERVKIPLDHGTLLIMEGATQADWQHRVPKEYHSREPRVNLTFRTVYPDPRGAPW
For the molecule B2, the binding result in assay [2] is on record as “binds”.
